Results as given in patent US20230331820A1 (GlaxoSmithKline, published 2023).
Read-outs that look alike come from different tables or passages of the source.

Experiments:
[1] = molecular target: gEgI mutant (338): HSV2 gEgI mutant heterodimer comprising gE and gI ectodomains with insertion of a (HSV2, UniProt P89475 21-416; P06764 21-256); test: ELISA, supernatant
[2] = molecular target: T1, gEgI WT: HSV2 gEgI heterodimer comprising gE and gI wildtype ectodomains (HSV2, UniProt P89475 21-416; P06764 21-256); test: SPR single-cycle kinetics, mAb captured on RAM, gEgI as analyte, 1:1 model
[3] = molecular target: T1, gEgI WT: HSV2 gEgI heterodimer …; test: Biacore SPR, gEgI CHO BMP1181 at 10 µg/ml for 180 s over the mAb
[4] = molecular target: T2, gI WT: HSV2 gI wildtype ectodomain (HSV2, UniProt P06764 21-256); test: ELISA, supernatant
[5] = molecular target: T3, gEgI mutant (P317R): HSV2 gEgI mutant heterodimer comprising gE and gI ectodomains with mutation P317R in gE (HSV2, UniProt P89475 21-416; P06764 21-256); test: SPR single-cycle kinetics, mAb captured on RAM; gEgI mutant batch 1
[6] = molecular target: T3, gEgI mutant (P317R): HSV2 gEgI mutant …; test: SPR single-cycle kinetics, mAb captured on RAM; gEgI mutant batch 2
[7] = molecular target: T1, gEgI WT: HSV2 gEgI heterodimer …; test: Biacore SPR, gEgI HEK BMP1063 at 10 µg/ml for 180 s over the mAb
[8] = molecular target: T2, gI WT: HSV2 gI wildtype ectodomain; test: ELISA, supernatant; remark: listed apart in the source
[9] = molecular target: gEgI mutant (P319D): HSV2 gEgI mutant heterodimer comprising gE and gI ectodomains with mutation P319D in gE (HSV2, UniProt P89475 21-416; P06764 21-256); test: ELISA, supernatant
[10] = molecular target: T3, gEgI mutant (P317R): HSV2 gEgI mutant …; test: ELISA, supernatant
[11] = molecular target: gEgI mutant (R320D): HSV2 gEgI mutant heterodimer comprising gE and gI ectodomains with mutation R320D in gE (HSV2, UniProt P89475 21-416; P06764 21-256); test: ELISA, supernatant
[12] = molecular target: T4, gE WT: HSV2 gE wildtype ectodomain (HSV2, UniProt P89475 21-416); test: ELISA, supernatant
[13] = molecular target: T1, gEgI WT: HSV2 gEgI heterodimer …; test: ELISA, supernatant
[14] = molecular target: T1, gEgI WT: HSV2 gEgI heterodimer …; test: SPR binning; gEgI captured by mAb 10
[15] = molecular target: T1, gEgI WT: HSV2 gEgI heterodimer …; test: SPR binning; gEgI captured by mAb 24
[16] = molecular target: T1, gEgI WT: HSV2 gEgI heterodimer …; test: SPR binning; gEgI captured by mAb 39
[17] = molecular target: T1, gEgI WT: HSV2 gEgI heterodimer …; test: SPR binning; gEgI captured by mAb 19
[18] = molecular target: T1, gEgI WT: HSV2 gEgI heterodimer …; test: SPR binning; gEgI captured by mAb 45
[19] = molecular target: T1, gEgI WT: HSV2 gEgI heterodimer …; test: SPR binning; gEgI captured by mAb 34
[20] = molecular target: T1, gEgI WT: HSV2 gEgI heterodimer …; test: SPR binning; gEgI captured by mAb 17
[21] = molecular target: T1, gEgI WT: HSV2 gEgI heterodimer …; test: SPR binning; gEgI captured by mAb 42
[22] = molecular target: T1, gEgI WT: HSV2 gEgI heterodimer …; test: SPR binning; gEgI captured by mAb 20
[23] = molecular target: T1, gEgI WT: HSV2 gEgI heterodimer …; test: SPR binning; gEgI captured by mAb 15
[24] = molecular target: T1, gEgI WT: HSV2 gEgI heterodimer …; test: SPR binning; gEgI captured by mAb 40
[25] = molecular target: T1, gEgI WT: HSV2 gEgI heterodimer …; test: SPR binning; gEgI captured by mAb 9
[26] = molecular target: T1, gEgI WT: HSV2 gEgI heterodimer …; test: SPR binning; gEgI captured by mAb 5
[27] = molecular target: T4, gE WT: HSV2 gE wildtype ectodomain; test: ELISA, supernatant; remark: listed apart in the source

B1: mAb clone 12, 13 (antibody, V domains shown)
VH: QVQLKESGPGLVAPSQSLSITCTVSGFSLTSYGVHWVRQPPGKGLEWLGVIWAGGSTNYNSALMSRLSISKDNSKSQVFLKMNSLQTDDTAMYFCARGGITSLHNYVMDYWGQGTSVTVSS
VL: DIVLTQSPASLAVSLGQRATISCRASESVEYYGTSLMQWYQQKPGQPPKLLIYAASNVESGVPARFSGSGSGTHFSLNIHPVEEDDIAMYFCQQSRKVPSTFGGGTKLEIK
notes: also called mAb 12; mAb12
Does B1 bind [1]?
Result: binds

And the Kd [2]?
The Kd was 6.89 nM.

What about the koff [2] of the same binder?
The koff was 0.00197 s⁻¹.

What about the kon [2] of the same binder?
Its kon is 285000 M⁻¹ s⁻¹.

And the “RU Ag/250 RU mAbs” value [3]?
Its value is 112 RU Ag/250 RU mAbs.

Does B1 bind [4]?
Result: no binding

What about the Kd [5] of the same binder?
Its Kd is 7.68 nM.

What about the koff [5] of the same binder?
Its koff is 0.00325 s⁻¹.

And the kon [5]?
Its kon is 422000 M⁻¹ s⁻¹.

And the Kd [6]?
The Kd was 11.5 nM.

What about the koff [6] of the same binder?
The koff was 0.00324 s⁻¹.

What about the kon [6] of the same binder?
Its kon is 280000 M⁻¹ s⁻¹.

And the “RU Ag/250 RU mAbs” value [7]?
The value was 108 RU Ag/250 RU mAbs.

B2: mAb clone 48 (antibody, V domains shown)
VH: QVTLKESGPGILQPSQTLSLTCSFSGFSLSTSGMGVSWIRQPSGKGLEWLAHIYWDDDKRYNPSLKSRLTISKDTSSNQVFLKITSVDTADTATYYCARRGFYYRYDGGRRYYYAMDYWGQGTSVTVSS
VL: DILLTQSPAILSVSPGERVSFSCRASQSIGTSIHWYQQGTNGSPRLLIKFASESISGIPSRFSGSGSGTDFTLSINSVESEDIADYYCQQSNSWPLTFGAGTKLELK
What does the source list for B2?
binding result [8]: no binding; binding result [9]: binds; binding result [10]: binds; binding result [11]: binds; binding result [1]: binds; binding result [12]: binds; binding result [13]: binds

B3: mAb clone 37 (antibody, V domains shown)
VH: EVQLQQSGPELVKPGASVKISCKASGYTFTDYNMHWVKQSHGKSLEWIGYIYPYNGGTGYNQKFKTKATLTVDNSSSTAYMELRSLTSEDSAVYYCAIPGYYYAMDYWGQGTSVTVSS
VL: DIVLTQSPASLAVSLGQRATISCRASKSVSTSGYSYMHWYQQKPGQPPKLLIYLASNLESGVPARFSGSGSGTDFTLNIHPVEEEDASTYYCHHSRELPRTFGGGTKLEIK
What does the source list for B3?
binding result [9]: binds; binding result [10]: binds; binding result [11]: binds; binding result [1]: binds; binding result [4]: no binding; binding result [12]: binds; binding result [13]: binds

B4: mAb clone 40 (antibody, V domains shown)
VH: QIQLVQSGPELKKPGETVKISCKASGYTFTNYGMNWVKQAPGKGLKWMGWINTYTGEPTYADDFKGRFAFSLETSASTAYLQINNLKNEDTATYFCARSLYGYDEGYFDVWGAGTTVTVSS
VL: DIQMTQSPASLSASVGETVTITCRASGNIHNYLAWYQQKQGKSPQLLVYNAKTLADGVPSRFSGSGSGTQYSLKINSLQPEDFGSYYCQHFWSTPYTFGGGTKLEIK
Does B4 bind [1]?
Result: binds

What about the RU [14] of the same binder?
The RU was 9.8 RU.

And the RU [15]?
Its RU is 7.6 RU.

And the RU [16]?
Its RU is 9 RU.

And the RU [17]?
The RU was 6.4 RU.

What about the RU [18] of the same binder?
Its RU is 7.3 RU.

What about the RU [19] of the same binder?
Its RU is 5.2 RU.

Does B4 bind [4]?
Result: no binding

Does B4 bind [12]?
Result: no binding

And the RU [20]?
Its RU is 8.8 RU.

What about the RU [21] of the same binder?
The RU was 7.4 RU.

And the RU [22]?
The RU was 10 RU.

What about the RU [23] of the same binder?
Its RU is -0.4 RU.

What about the RU [24] of the same binder?
The RU was 2.6 RU.

What about the RU [25] of the same binder?
The RU was 8.8 RU.

What about the RU [26] of the same binder?
The RU was 9 RU.

B5: mAb clone 41 (antibody, V domains shown)
VH: QVQLQQSGAELVRPGTSVKVSCKASGYAFTNYLIEWVKQRPGQGLEWIGVINPGSGGTNYNEKFKGKATLTADKSSSTAYMQLSSLTSDDSAVYFCARSGLRRDYYAMDYWGQGTSVTVSS
VL: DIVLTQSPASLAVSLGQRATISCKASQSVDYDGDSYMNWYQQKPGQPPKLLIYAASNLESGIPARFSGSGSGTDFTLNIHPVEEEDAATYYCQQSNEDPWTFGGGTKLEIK
Does B5 bind [9]?
Result: binds

Does B5 bind [10]?
Result: binds

Does B5 bind [27]?
Result: no binding

Does B5 bind [11]?
Result: binds

Does B5 bind [1]?
Result: binds

Does B5 bind [4]?
Result: binds

Does B5 bind [13]?
Result: binds
